For experiment [1], the target named is Canine parvovirus CPV-2c (TS02 strain), purified virus (canine parvovirus CPV-2c, TS02 strain). Description: indirect ELISA, purified CPV coated, serum dilution 1:5000; control of the fourth immunization serum. (An ELISA detects its analyte on a solid surface through an enzyme-linked reagent.)
Experiment [2] has the same target. Description: indirect ELISA, purified CPV coated, serum dilution 1:5000; control of the third immunization serum.
The target is the same in experiment [3]. Description: indirect ELISA, purified CPV coated, serum dilution printed 1:1250000 (text: 125,000 times); control of the third immunization serum.
Experiment [4] shares this target. Description: indirect ELISA, purified CPV coated, serum dilution printed 1:1250000 (text: 125,000 times); control of the fourth immunization serum.
Experiment [5] shares this target. Description: indirect ELISA, purified CPV coated, serum dilution 1:25000; control of the fourth immunization serum.
Experiment [6] has the same target. Description: indirect ELISA, purified CPV coated, serum dilution 1:1000; control of the fourth immunization serum.
Experiment [7] has the same target. In words: indirect ELISA, purified CPV coated, serum dilution 1:25000; control of the third immunization serum.
For experiment [8] the target is unchanged. Description: indirect ELISA, purified CPV coated, serum dilution 1:1000; control of the third immunization serum.
The target is the same in experiment [9]. In words: cell-based or functional assay.
The target is the same in experiment [10]. In words: indirect ELISA, purified CPV coated, nanobody dilution 1:100, anti-His-HRP.
The target is the same in experiment [11]. In words: indirect ELISA, purified CPV coated, nanobody dilution 1:1000, anti-His-HRP.
Experiment [12] shares this target. In words: indirect ELISA, purified CPV coated, nanobody dilution 1:10, anti-His-HRP.
Experiment [13] shares this target. Description: indirect ELISA, purified CPV coated, nanobody dilution 1:10000, anti-His-HRP.

Experimental findings from US20230192815A1 are described below.

With Negative serum of non-immunized alpaca, the mean OD450 nm in [1] came out at 0.16 OD450 nm; in [2], 0.071 OD450 nm; in [3] it was 0.044 OD450 nm; in experiment [4], 0.067 OD450 nm; in experiment [5] it was 0.083 OD450 nm; in experiment [6], 0.371 OD450 nm. The results for the mean OD450 nm in experiment [7] and in experiment [8] were 0.048 OD450 nm and 0.158 OD450 nm, respectively.

B1: CPV nanobody CPV-VHH-H1 (VHH)
VHH: QVQLVESGGGLAQPGGSLRLSCAASGAIDSISAMRWFRQPPGKQRAVVASITSDGVTTYADSVKGRFTISRDNAENTLYLQMNSLKTEDTGVYYCYAALKGYSSGVVAASWGQGTQVTVSG
The molecule B1 came in with a neutralization titer (CPV neutralization assay, CPE on CRFK cells) (titer (1:x dilution)) in [9] of less than 10. Moreover, the mean OD450 nm in experiment [10] stood at 2.46 OD450 nm; in experiment [11] it was 0.28 OD450 nm; in [12], 2.56 OD450 nm; in [13], 0.1 OD450 nm.
